Values of other authors, collected in patent US20260263563A1, “Method of Treatment of a Thoracolumbar Deformity in a Human Subject with Achondroplasia” (Ascendis Pharma Growth Disorders A/S, priority 2023, published 2026).
Positions of bridges follow the written chain, without caps; N, C: chain ends. No end group written: not given here.

Conditions: in vivo; cited from earlier work

## Vosoritide (PGQEHPNARKYKGANKKGLSKGCFGLKLDRIGSMSGLGC; disulfide 23-39)
  reported t½: about 28 minutes
